Holding throughout (test): IEDB peptide-MHC binding, purified MHC/competitive/radioactivity; filed as Kd, often an IC50 or EC50 that approximates it; ≥ and ≤ were set here for values at or beyond the usual limits of such assays
In test [1] the target is HLA-A*03:01.
For test [2], the target named is HLA-A*33:01.
Test [3] addresses HLA-A*31:01.
Test [4] addresses HLA-A*11:01.
For test [5], the target named is HLA-A*68:01.
The mark [6] stands for this setting: source organism: Vaccinia virus WR.
Setting [7] is: source organism: Dengue virus 3 Martinique/1243/1999.
Setting [8] is: source organism: Dengue virus 1 Brazil/97-11/1997.
[9] abbreviates: source organism: SARS coronavirus Tor2.
The mark [10] stands for this setting: source organism: Mammarenavirus brazilense.
[11] abbreviates: source organism: Vaccinia virus Copenhagen.
[12] abbreviates: source organism: Dengue virus 4 Philippines/H241/1956.

Consider YFTFGDTALY, for which the Kd (usually the free concentration of one partner at which half of the binding sites on the other are occupied at equilibrium, for simple one-to-one binding) is 9010 nM in test [1] (setting [6]); ≥ 45300 nM in test [2] (setting [6]); ≥ 48000 nM in test [3] (setting [6]); 6400 nM in test [4] (setting [6]); 49.9 nM in test [5] (setting [6]).

On to GILKKLSSIK, for which the Kd is 13.9 nM in test [1] (setting [6]); ≥ 70000 nM in test [2] (setting [6]); 5480 nM in test [3] (setting [6]); 375 nM in test [4] (setting [6]); ≥ 20100 nM in test [5] (setting [6]).

As for LTIKDSSNK, the Kd in test [1] (setting [6]) was 827 nM; in test [2] (setting [6]), ≥ 77700 nM; in test [3] (setting [6]), ≥ 34800 nM; in test [4] (setting [6]) it was 14.9 nM; in test [5] (setting [6]) it was 9.14 nM.

As to MGYWIESQK, the Kd in test [1] (setting [7]) was found to be 12.8 nM; in test [5] (setting [7]), 67.2 nM.

On to HINALEYIIK, for which the Kd in test [1] (setting [6]) stood at 117 nM; in test [2] (setting [6]), 200 nM; in test [3] (setting [6]), 1520 nM; in test [4] (setting [6]), 87.9 nM; in test [5] (setting [6]) it was 35.9 nM.

Consider GLLFRRLTSR, for which the Kd was 170 nM in test [1] (setting [8]) and ≥ 53700 nM in test [3] (setting [8]).

Regarding VFHTMWHVTR, the Kd was found to be 135 nM in test [2] (setting [7]) and 4.53 nM in test [3] (setting [7]).

In the case of VTMMKYCSY, the Kd in test [1] (setting [6]) stood at 650 nM; in test [2] (setting [6]), 2060 nM; in test [3] (setting [6]) it was 460 nM; in test [4] (setting [6]) it was 8.78 nM; in test [5] (setting [6]) it was 521 nM.

Take DLIVTFRER: the Kd stood at 12700 nM in test [1] (setting [6]); 14.8 nM in test [2] (setting [6]); 509 nM in test [3] (setting [6]); 8140 nM in test [4] (setting [6]); 19.8 nM in test [5] (setting [6]).

FVASFRLFAR: the Kd in test [1] (setting [9]) was 94.2 nM; in test [2] (setting [9]), 14.1 nM; in test [3] (setting [9]), 6.64 nM; in test [4] (setting [9]), 50 nM; in test [5] (setting [9]), 0.106 nM.

For the sequence KCSDHYICLK, the Kd is 276 nM in test [1] (setting [10]); 8220 nM in test [2] (setting [10]); 482 nM in test [3] (setting [10]); 1890 nM in test [4] (setting [10]); ≥ 70100 nM in test [5] (setting [10]).

As for KLITPNYMK, the Kd in test [1] (setting [6]) is 10.3 nM; in test [2] (setting [6]), ≥ 59300 nM; in test [3] (setting [6]) it was 486 nM; in test [4] (setting [6]), 5.08 nM; in test [5] (setting [6]), 2790 nM.

As for PQVGGLTSIK, the Kd in test [1] (setting [9]) was ≥ 10000 nM; in test [2] (setting [9]), ≥ 70000 nM; in test [3] (setting [9]), ≥ 70000 nM; in test [4] (setting [9]) it was 6370 nM; in test [5] (setting [9]) it was ≥ 37500 nM.

ATTVITPMMR: the Kd amounted to 125 nM in test [3] (setting [8]), 141 nM in test [4] (setting [8]) and 368 nM in test [5] (setting [8]).

LTMKAIEKDR: the Kd in test [1] (setting [6]) amounted to 12100 nM; in test [2] (setting [6]) it was 6250 nM; in test [3] (setting [6]), 595 nM; in test [4] (setting [6]) it was 280 nM; in test [5] (setting [6]), 65.5 nM.

As to ITNITTDSR, in test [5] (setting [7]), the Kd was 26.3 nM.

As for VIGLTTHCTK, the Kd in test [1] (setting [6]) is 15.4 nM; in test [2] (setting [6]) it was ≥ 35300 nM; in test [3] (setting [6]), 761 nM; in test [4] (setting [6]), 45.9 nM; in test [5] (setting [6]), 73.2 nM.

Consider IVNNQESNK, for which the Kd in test [1] (setting [11]) is 132 nM; in test [2] (setting [11]), ≥ 77700 nM; in test [3] (setting [11]) it was 1180 nM; in test [4] (setting [11]) it was 147 nM; in test [5] (setting [11]), 111 nM.

MIIKHIYEQY: the Kd is ≥ 70100 nM in test [1] (setting [6]); ≥ 70000 nM in test [2] (setting [6]); ≥ 70000 nM in test [3] (setting [6]); 5780 nM in test [4] (setting [6]); 140 nM in test [5] (setting [6]).

As for YVKNGTKGK, the Kd in test [1] (setting [6]) is 2080 nM; in test [2] (setting [6]), ≥ 65500 nM; in test [3] (setting [6]), ≥ 72100 nM; in test [4] (setting [6]) it was 875 nM; in test [5] (setting [6]), 39.3 nM.

Take TVYDDAARR: the Kd in test [1] (setting [9]) was found to be 455 nM; in test [2] (setting [9]), 4970 nM; in test [3] (setting [9]), 1160 nM; in test [4] (setting [9]) it was 97.1 nM; in test [5] (setting [9]), 2.54 nM.

In the case of STPIVVQMTK, in test [4] (setting [9]), the Kd stood at 14.2 nM.

For the sequence SVEDVSAFVR, the Kd in test [1] (setting [6]) was ≥ 70100 nM; in test [2] (setting [6]), 2120 nM; in test [3] (setting [6]), 656 nM; in test [4] (setting [6]) it was 36.8 nM; in test [5] (setting [6]), 15.6 nM.

For the sequence NFMVSVSDFR, the Kd amounted to 9960 nM in test [1] (setting [6]); 33.1 nM in test [2] (setting [6]); 93.9 nM in test [3] (setting [6]); 4030 nM in test [4] (setting [6]); 6.56 nM in test [5] (setting [6]).

Turning to RIMQRGLFGK, the Kd in test [1] (setting [12]) turned out to be 5.43 nM; in test [3] (setting [12]) it was 10.9 nM; in test [4] (setting [12]) it was 29.5 nM.

Regarding IMVASDVCK, the Kd was determined as 150 nM in test [1] (setting [6]); 3480 nM in test [2] (setting [6]); 991 nM in test [3] (setting [6]); 369 nM in test [4] (setting [6]); 408 nM in test [5] (setting [6]).

For the origin of these results see the Immune Epitope Database (IEDB).
